Laboratory results taken from patent US20230057012A1, “TGFB INHIBITORS AND USE THEREOF” (Scholar Rock, Inc., priority 2020, published 2023).

Molecular target: antigen of FIG. 2 (not named)
Test: SPR Biacore, Fab (FIG. 2)

times longer bound than the reference antibody: > 50 fold
B1: Ab46 Fab (Fab, V domains shown)
VH: EVQLLESGGGLVQPGGSLRLSCAASGFTFADYAMTWVRQAPGKGLEWVSAISGSGAATYFADSVKGRFTISRDNSKNTLYLQMNSLRAEDTAVYYCARVSSGHWDYDYWGQGTLVTVSS
VL: DIQLTQSPSSLSASVGDRVTITCRASQSISSYLNWYQQKPGKAPKLLIYAASGLESGVPSRFSGSGSGTDFTLTISSLQPEDFATYYCQQTYGVPLTFGGGTKVEIK
